Measured values reported in the supplement of paper PMC9112550, “Optimization of the antimicrobial peptide Bac7 by deep mutational scanning” (BMC Biology, 2022).

System: Escherichia coli TOP10
Assay: shrunken log2 fold change of peptide-encoding DNA abundance (4.5 h post-induction vs induction); higher = less antimicrobial activity (less host growth inhibition)
Details: time post-induction: 4.5 h; library: site-saturation at positions 5, 18, 19, 20
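Further: peptides expressed intracellularly from a pBAD plasmid library in pooled LB shake-flask culture, induced with 0.3% L-arabinose, DNA abundance read by NGS, three biological replicates, DESeq2 with apeglm shrinkage.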

Row | Sequence | shrunken log2 fold change
1 | RRIRYRPPRLPRPRPRPQKLPRP | -0.418
2 | RRIRHRPPRLPRPRPRPKMDPRP | -0.014
3 | RRIRKRPPRLPRPRPRPLENPRP | 0.228
4 | RRIRWRPPRLPRPRPRPFENPRP | -0.15
5 | RRIRLRPPRLPRPRPRPQTKPRP | -0.201
6 | RRIRPRPPRLPRPRPRPMSCPRP | -0.043
7 | RRIRWRPPRLPRPRPRPWSHPRP | -0.00467
8 | RRIRRRPPRLPRPRPRPCHIPRP | -0.309
9 | RRIRARPPRLPRPRPRPFHHPRP | -0.294
10 | RRIRQRPPRLPRPRPRPMDNPRP | -0.367
11 | RRIRVRPPRLPRPRPRPPRGPRP | 0.665
12 | RRIRTRPPRLPRPRPRPPEMPRP | 0.237
13 | RRIRQRPPRLPRPRPRPYTWPRP | -0.51
14 | RRIRNRPPRLPRPRPRPSQGPRP | -0.154
15 | RRIRGRPPRLPRPRPRPKNKPRP | 0.375
16 | RRIRSRPPRLPRPRPRPTDGPRP | -0.115
17 | RRIRQRPPRLPRPRPRPTWHPRP | 0.0897
18 | RRIRPRPPRLPRPRPRPYQDPRP | -0.025
19 | RRIRVRPPRLPRPRPRPNPMPRP | 0.0227
20 | RRIRLRPPRLPRPRPRPCRYPRP | -0.0582
21 | RRIRVRPPRLPRPRPRPAHTPRP | 0.109
22 | RRIRYRPPRLPRPRPRPYYRPRP | -0.161
23 | RRIRARPPRLPRPRPRPHCAPRP | 0.149
24 | RRIRCRPPRLPRPRPRPNYDPRP | -0.672
25 | RRIRVRPPRLPRPRPRPVPRPRP | -0.00795

Row | Sequence | shrunken log2 fold change
26 | RRIRGRPPRLPRPRPRPLTCPRP | 0.416
27 | RRIRPRPPRLPRPRPRPLTEPRP | 0.0389
28 | RRIRCRPPRLPRPRPRPKYIPRP | -0.828
29 | RRIRSRPPRLPRPRPRPDGPPRP | 0.0211
30 | RRIRMRPPRLPRPRPRPCDAPRP | 0.261
31 | RRIRQRPPRLPRPRPRPEGMPRP | 0.13
32 | RRIRWRPPRLPRPRPRPCMWPRP | -0.0796
33 | RRIRLRPPRLPRPRPRPWHLPRP | -0.28
34 | RRIRYRPPRLPRPRPRPNPWPRP | -0.189
35 | RRIRARPPRLPRPRPRPQPNPRP | 0.396
36 | RRIRGRPPRLPRPRPRPERVPRP | 0.397
37 | RRIRTRPPRLPRPRPRPWPFPRP | -0.0102
38 | RRIRQRPPRLPRPRPRPYNIPRP | -0.395
39 | RRIRHRPPRLPRPRPRPYNEPRP | 0.0187
40 | RRIRSRPPRLPRPRPRPEWGPRP | 0.0115
41 | RRIRGRPPRLPRPRPRPGSLPRP | 0.421
42 | RRIRNRPPRLPRPRPRPRYRPRP | -0.0876
43 | RRIRARPPRLPRPRPRPNEIPRP | -0.179
44 | RRIRFRPPRLPRPRPRPSAIPRP | -0.304
45 | RRIRCRPPRLPRPRPRPQCNPRP | -0.5
46 | RRIRLRPPRLPRPRPRPNMMPRP | -0.762
47 | RRIRIRPPRLPRPRPRPWRDPRP | -0.0858
48 | RRIRPRPPRLPRPRPRPTAIPRP | 0.434
49 | RRIRKRPPRLPRPRPRPLCDPRP | 0.376
50 | RRIRNRPPRLPRPRPRPEIPPRP | -0.113
